Measured values: publication PMC10147923, “Pain-causing stinging nettle toxins target TMEM233 to modulate NaV1.7 function” (Nature Communications, 2023)

What was measured:
[1] = target: TMEM233 (human) (UniProt B4DJY2); assay: fluorescent ligand binding to cells (plate reader); ExTxA-488 (1–300 nM) with mock- or TMEM233-transfected HEK293 and HEK293-NaV1.7 cells in suspension, 250 mM NaCl, 25 mM HEPES, pH 7, 30 min at 4 °C, washed three times; fluorescence intensity read in 384-well plate; EC50 told for NaV1.7/TMEM233 co-expressing cells
Sequence of TMEM233 (human) (B4DJY2 whole entry): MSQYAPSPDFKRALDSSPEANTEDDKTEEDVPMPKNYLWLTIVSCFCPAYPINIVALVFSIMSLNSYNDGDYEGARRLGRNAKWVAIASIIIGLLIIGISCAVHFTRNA

[2] = target: TMEM233 (human) (UniProt B4DJY2)

Sequence of Alexa488-tagged excelsatoxin A (peptide) (P0DQP3 38-73 limits assumed): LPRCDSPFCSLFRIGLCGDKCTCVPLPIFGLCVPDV

“Alexa488-tagged excelsatoxin A (peptide)” was tested. Which EC50 [1] did it give?
Its EC50 is 126 nM.

And the EC50 of functional potency on NaV1.7 inactivation in NaV1.7/TMEM233 co-expressing cells (electrophysiology) [2]?
Its EC50 of functional potency on NaV1.7 inactivation in NaV1.7/TMEM233 co-expressing cells (electrophysiology) is 0.0809 µM.
